# Test results as given in article PMC2191102.
# Molecular target: moth cytochrome c, MCC(99K), wild-type peptide peptide on I-Ek (mouse)
# Test: C1/2wt: antigen concentration for half-maximal IL-2 with wild-type I-Ek CHO APC
substance,measurement,value
2B4,EC50 of peptide,25 nM
